Like-named read-outs stand apart in the source and are kept apart here.
How the values were obtained:
[1] = molecular target: GST-Sumo fusion protein of the perch Connexin 35 C-terminal domain (amino acids 251-304), wild type (perch); assay: SPR; GST-Sumo-Cx35 fusion proteins captured by immobilised anti-GST antibodies on a CM5 chip (Biacore 2000); calmodulin as analyte, 3 nM to 30 µM; GST-Sumo reference flowcell subtracted; 1 mM free Ca2+, 0.5 mM free Mg2+, 140 mM KCl, 10 mM MOPS pH 7.2, 0.05% Tween 20; first order ligand binding …
[2] = molecular target: GST-Sumo fusion protein of the perch Connexin 35 C-terminal domain (amino acids 251-304), wild type (perch)
[3] = molecular target: GST-Sumo fusion protein of the perch Cx35 C-terminal domain (251-304) R268A (perch); assay: SPR; GST-Sumo-Cx35 fusion proteins captured by immobilised anti-GST antibodies on a CM5 chip (Biacore 2000); calmodulin as analyte, 3 nM to 30 µM; GST-Sumo reference flowcell subtracted; 1 mM free Ca2+, 0.5 mM free Mg2+, 140 mM KCl, 10 mM MOPS pH 7.2, 0.05% Tween 20; first order ligand binding …
[4] = molecular target: GST-Sumo fusion protein of the perch Cx35 C-terminal domain (251-304) V270A, Q271A (perch); assay: as above
[5] = molecular target: GST-Sumo fusion protein of the perch Connexin 35 C-terminal domain (amino acids 251-304), wild type (perch); assay: as above; remark: listed apart in the source
[6] = molecular target: GST-Sumo fusion protein of the perch Cx35 C-terminal domain (251-304) V267A (perch); assay: as above
[7] = molecular target: GST-Sumo fusion protein of the perch Cx35 C-terminal domain (251-304) I277A (perch); assay: as above

With “calmodulin (from UniProt P0DP23 1-149) (natural protein)” as the substance, how does the Kd [1] read?
The Kd was 1430 nM.

What about the reduction of Neurobiotin tracer coupling by 5 µM ionomycin in transiently transfected HeLa cells (full-length untagged Cx35 wild type in the cells) [2] of the same substance?
Its reduction of Neurobiotin tracer coupling by 5 µM ionomycin in transiently transfected HeLa cells (full-length untagged Cx35 wild type in the cells) is 67%.

And the Kd [3]?
Its Kd is 2460 nM.

What about the Kd [4] of the same substance?
The Kd was 1190 nM.

What about the Kd [5] of the same substance?
The Kd was 1380 nM.

And the Kd [6]?
Its Kd is 5390 nM.

And the Kd [7]?
The Kd was 1260 nM.
